Reference: a protein production outcome set (Wang et al. 2014)

Assay: label from the status in PepcDB records
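Also: failed if final PepcDB status was selected cloned or expressed and not failed if soluble or beyond.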

Sequence	protein production
MSGPSTYQPQSPLMKWLEQRLPIAGLVHSSFIAYPTPRNLNYWWTFGAILSMMLAVQIVTGIVLAMHYTPHVDLAFDSVERIVRDVNYGWLLRNMHAAGASMFFIAVYVHMLRGLYYGSYKAPREVLWILGVIIYLLMMATGFMGYVLPWGQMSFWGATVITNLFSAFPIVGDSIVTLLWGGYSVGNPTLNRFFSLHYLLPFVIAGVVVLHVWALHVTGQNNPAGVEPKTEKDTVPFTPYATLKDVFGMSCFLVFYSWFIFYMPNYLGDAENYVPANPGVTPPHIVPEWYYLPFYAILRSIPNKLMGVIAMFGAIIVLLFLPWLDSCKVRSSRYRPMAKRFFWAFVVTCLVLGWLGSKPAEGIYTTLGQVFTFFYFAYFLIVLPVLGRMEKTLPLPNSIAEDVLNKGKVAKAVAGLVAVLFAGGLMVGGVQPAKANEGGENPPSLQWSFAGPFGTYDRAQLQRGFKIYKEVCSNCHSLKLLQYRNLAEPGGPGFTVEQAKEIAAAAQIKDGPNDQGEMFERPGRLADTFHSPFPNEQAARAANGGAAPPDMSLLAKARTYPRGFPQFIFDFFTQFQEQGPNYIAALLQGYEDTPPEGFSLPDGSFYNKWYPGHSIKMPPPIQAGMVSYDDGTPETLEQYAKDISTFLVWASEPHMEARKRLGLQVMIFLVILSSLLYFVKRKVWSNVH	failed
MSGRGKVKSEPMKVVFINTQYVETDARSFKTVVQELTGKNAIVAAGPFDSPSAFDGRCYDGGSKIGEDTRQLHGGGGGGGRMGTTTEFDRLFKEMPHMEELYKLWSEY	failed
MSGRLRNALHKIRDRGLTPRDLFSYGCIAGHRLLSGAWGTLMLRAKAGCLGITVGKGCECFGTVILSRWPGSRIELGDGVSIISSSRRCTSATIHAPTRLRTFAPTARIILEDGVSLNGTAITARSRTIRIGKGTMVAPNCVITDSDFHAMWPPETRLDTPAFERDADVTIGQHVWLGMRCIVLKGVTIGDGAIVAAGSVVTRDVPPATLVAGVPARVVRHLP	failed
MSGSQPGRDKAIPAPRPTADIWENPDQLPADRGDLIKAKLTPAVITIFLRNNLKRIALLASALFVLGMIVLWLLPVRYAATALVMVDPREQRVTTDQEVLPGIGQDAAALQSLIEIAKSDGFLRPLVEKLKVAEDHEIAGSETDPARVLDRFRKHLEIARRGLTYVIEMTFVAKDPQRAAYYANAVAEAFVASQTQVRAVAADEAAGWLSSRLKTLNEKLRASEDAVAAFKTQYRIVDAGRESTTRQLRVTELTQQVSAARLRTEEAKNRYEQAQRDLKSDVDGSTGSKSDLVSVLRTQRTQLNDQIAQKRAVLGDRHPELVIAYNQLAELNRQIEAERKRNIVSAKSDYDAMRDQLKALEQQLKSLETEMLGDDQAAVKLKELQREANANRAIYEQFLERYNTTNQQRLLQATQTKVASFATPPTRPTRPPLLVLIAAIAVASILVSIAVVAMLASLSNQPEQADNSGPPEGATAPVPVEAAATSAAEPIEEKKPAADYSNLPIVLRIPDLSGARTLGGKLAMLGGERRLDHYVVGLLDAIGVKPSQRGMVVLVTSVDPGAGKSSVARALNAIAVDRGMLSVVIEVAGQARSVPAAPSNRAEPDGGALVRVLKTTIPSVVRLIASEPDVSAQNDVRSEFDLILIDAPALATQTEVAEIAAHTDLNLLVIDSAVTEAGAALEAQALLSRRGHAPAGVVVNKAGAQPAPAAVPAARLAS	failed
MSGTSAALKPPADATTPVRHPDAPAPGELLGAHYGHCFGCGEEQSHGLHLAARAGQGVSITAEFTVQPAHQGAPGLAHGGVLATALDETLGSLNWLLRTIAVTGRLETDFVRPVPVGTVLYLEAEVTAVAGRKIYSTATGRIGGPEGPVAVRADALFVEVKVDHFTDNGRQEEIRAAMNDPDQLRRARAFEVNP	failed
MSGYFEILAILTCAVFVVWLFRRLNLPAILAYLVAGMLVGQHGLNLVQDQVDYDHFAELGIVFLLFTLGLEFSLPRLMAMRHLVVSVGSLQVGISLLVFIIAGLFFGLSFSEAFVVGSILALSSTAIVIRQLSETGAMKRKSGQLSVAILLFQDVAVVPLLIIIPMLAMDSQSSMVWALMLAMVKGVVVVALLLLIGKWLLPKVFNIIAQVRTDELFVLTTLLVTLLAAAFTQWFGLSMALGAFLAGMMLSESEYKHQLEADIRPYRDILLGLFFITVGMKLDVSLLISSPFSLLGLMLCFMLVKIMVIKILAVKAGESSKDAWASGLMLAQMGEFGFVLIALANQSQILPLDVASMLLGAGVISMAITPFMINNARSWALFLSQEKSPESLDLSQLPENKVLENHVVICGFGRVGQTVSRFLKQDEIDFVAIDVDPLRTQKAREAGEKVLFGSSRQTEVLNAAHLSEAKLVVIAFGDDKQSLEVIQKVRSMNEKVPILVRTRNDDQLDALQAAGANEVVPESLEGSLMLVSQVLSLTGVPFSRIMRRVQRERKNHYNHLHGFFQGEHTDMSPQAIDRIEFAHAILINDNSFSCGKSIESLNLGKMRVNVVALRRGDIECESPGKDTVLQAQDTLIIRGKPRGVEKADHYVQEGK	failed
MSHLLEKAAARGDLAALERLLDAGADLEWQHKGTGRTALLAATIAGHQPAVALLLARGANVQQPCKALGYSPLAWAASHGDTALAELLIAHGAALEQASPELQRTALMNAAQAGHEAMVALLLKAGANPSPVDFQQRNAWSLAEENGHAQVMQQLEQAGTGAPPAPAPAPSLPWPPLVPGTDSSADPVTQVRAYTLALYAWEQRGNALGHEALDAAFWAEPQQLLERFCTLRPRAYPRASYGYPTTHAEADELLGCQLLKPAQAEVLVRDPASRALCYEHRFVVKRVAGQWRIDSVKRRLAGTQKWANAIL	failed
MSHPDYRMNLRSLGTHRGVSAVAGPHDIGASPGDKKSKNRSTRGKKKSIFETYMSKEDVSEGLKRGTLIQGVLRINPKKFHEAFIPSPDGDRDIFIDGVVARNRALNGDLVVVKLLPEEHWKVVKPESNDKETEAAYESDIPEELCGHHLPQQSLKSYNDSPDVIVEAQFDGSDSEDGHGITQNVLVDGVKKLSVCVSEKGREDGDAPVTKDETTCISQDTRALSEKSLQRSAKVVYILEKKHSRAATGFLKLLADKNSELFRKYALFSPSDHRVPRIYVPLKDCPQDFVARPKDYANTLFICRIVDWKEDCNFALGQLAKSLGQAGEIEPETEGILTEYGVDFSDFSSEVLECLPQGLPWTIPPEEFSKRRDLRKDCIFTIDPSTARDLDDALSCKPLADGNFKVGVHIADVSYFVPEGSDLDKVAAERATSVYLVQKVVPMLPRLLCEELCSLNPMSDKLTFSVIWTLTPEGKILDEWFGRTIIRSCTKLSYEHAQSMIESPTEKIPAKELPPISPEHSSEEVHQAVLNLHGIAKQLRQQRFVDGALRLDQLKLAFTLDHETGLPQGCHIYEYRESNKPCCAGTPRPKQGCSVTWWNSATRWGCPWTSAPQEPSIKA	failed
MSHPSYPPAPQNDAGAGIPQVPAAPYAYGRQFQGGAQPGYQPGPDSGPYGSPVGAPAKSFMTTWILALLLGSFGVDRFYLGKIGTGIAKLLTAGGFGIWSIVDLIITLTGNARDKQGRPLAGYPENKKKAWIITIVVWFAGLIVGIVSTVLSLTFVAAAVQGAGTDAPVLPSASQEAPAPSSGTASDDGSLTVTMSEGNTVKVSLLNSGYTTEIPGMSYMKPTRGGFLLLEVSWEATAGSSYASPSNFEAFDADGAKGEEIYVEEGLGGLPSGDVAAGEMQRGVIAFDIKNGPTTVVISDDFGDKAATFTLTPAN	failed
MSHSHSHGHSHEPTNYNRAFIISVALNTGFVVIEVVYGLAANSLALLADAGHNLSDVLGLLLAWGASFLGRRQPTPRRTYGLRRSSILAALLNAVLVLVASGAVAWEAIQRFAQPSPVSGSTIIGVAAVGIAINMGSALMFLSGRERDLNIRGAFIHLVADAAVSLGAVLAGIAIVATGWLWFDPVVSLMIVVVIIVSTWQLFQESLNLVTDAVPAGIEPLAVRTFLAELPGVSSIHDLHIWAMSTTETALTAHLIMPAGNLSDAFLVQVNQQLHDHFGIEHTTIHIETGDPSYPCPLAQENVV	failed
MSHVELQPGFDFQQAGKEVLAIERECLAELDQYINQNFTLACEKMFWCKGKVVVMGMGKSGHIGRKMAATFASTGTPSFFVHPGEAAHGDLGMVTPQDVVIAISNSGESSEITALIPVLKRLHVPLICITGRPESSMARAADVHLCVKVAKEACPLGLAPTSSTTATLVMGDALAVALLKARGFTAEDFALSHPGGALGRKLLLRVNDIMHTGDEIPHVKKTASLRDALLEVTRKNLGMTVICDDNMMIEGIFTDGDLRRVFDMGVDVRQLSIADVMTPGGIRVRPGILAVEALNLMQSRHITSVMVADGDHLLGVLHMHDLLRAGVV	failed
MSHVLVNVAWPYANGPRHIGHVAGFGVPSDVYARYERMKGNDVLMVSGTDEHGTPILVEAEKEGLTAQELANRYNRVIAKDLCDLGLSYDLFTRTTTGNHEHVVQEMFKQCLENGYIYKGSQQVAISPSTGRTLPDRYIEGECPICHAEGARGDQCDACGNELDPDELINPVSKINGETPRFEQTEHYFLDLPALAEANKAWLETRKGWRTNVINFSLGLFKEVKPRAITRDIDWGIPVPVKGWIDNPNKKLYVWFDAVIGYLSASIEWARRQGDPEKWREWWNDPKCPAYYFMGKDNITFHSQIWPSEMLAYNGKGSKGGETGPMGPLNLPEQVVASEFMTMEGKKFSSSRGIVIYVKDILARYPVDAVRYYISVAGPESSDSDFTWAEFVRHNNEELASSWGNLVNRVANLINKNFGEIPPLDEDSMTNEDRGLLEEASAAFDVVGSSIETHHQKHALSEAMRVVGDINKYISATEPWKIKDDQARLGTVLHVAAQAVSDANHLLAPFLPHSAQKVWEALGGTGTFSPLPELKEVEDLDKPGFTYPIITGDYELGVNVHPWKSEAIEVGAVVPKPAPIFAKIPTEAVEEELARFDEALAARRAAEAERLAAEKAKLAAE	failed
MSHYQCAVCSSIDANPNSLAVNYQCLADSSVVGEFHVLPRHQGYTDLLHGGIASSLLDGAMTHCLLFRDIQALTAQLDVRYHAPIELDEHVTITAHCEGERRGIYQLVAQLLVNNEVRVTAKGKFIRPKLEHHHHHH	not failed
MSICPHIQQVFQNEKSKDGVLKTCNAARYILNHSVPKEKFLNTMKCGTCHEINSGATFMCLQCGFCGCWNHSHFLSHSKQIGHIFGINSNNGLLFCFKCEDYIGNIDLINDAILAKYWDDVCTKTMVPSMERRDGLSGLINMGSTCFMSSILQCLIHNPYFIRHSMSQIHSNNCKVRSPDKCFSCALDKIVHELYGALNTKQASSSSTSTNRQTGFIYLLTCAWKINQNLAGYSQQDAHEFWQFIINQIHQSYVLDLPNAKEVSRANNKQCECIVHTVFEGSLESSIVCPGCQNNSKTTIDPFLDLSLDIKDKKKLYECLDSFHKKEQLKDFNYHCGECNSTQDAIKQLGIHKLPSVLVLQLKRFEHLLNGSNRKLDDFIEFPTYLNMKNYCSTKEKDKHSENGKVPDIIYELIGIVSHKGTVNEGHYIAFCKISGGQWFKFNDSMVSSISQEEVLKEQAYLLFYTIRQVN	failed
MSIEIWITIIVFFLTMIVIFWRPRGLNEAWPAAIGAGIILITGLVSKPDVIDIVSKIGGASITILATIVMAVILESFGFFHWSAAKLANLAKGSGRRLYWYIQLLCFLMTLLFNNDGSILITTPILILLLKNLQLKPHQQIPYLLSGALIATASSAPIGESNIVNLIALNIVNMTLYMHTAMMFVPATLGLLFMSWLMYSVLKKKLPKKLPVSSYDIEEIFFTKNFHPLKGNNSVDTKQKRTRFMLKVLGFVFLMRCLLFVASFLSIPIEIVAVLGSLVLLIWRWYYLRTNPVDILKKTPWHILIFAFSMYVIIYGLHNAGLTAALVQWLEPIVNQHLLYASFAMGGLVSILSNVFNNHPALMIGTITLTEMGLDPVTLKTIYLANIIGSDIGSLLLPIGTLASLIWMYILKQNKIKVKWKDYLSVSLIVIPLTTVVTLFLLFYWVHLFFAL	failed
MSIEMKTQLGTVDVSKDVVATIAGGAAVDCYGIVGMASQKQIKDGLSELLGRENFRRGVVIREEEDEIHIDMYIIVSYGTKISEVAYNVQTKVKYQLETMLGIDVDSVNIFVQGVRVTNPLEHHHHHH	failed
MSIFNKDALSSFFGLSGEEDDYYDNYEEYEERKAVNEPPRRAARPKPQRPVQQQESYSQPAYTQQSEPVVEKPSARYRSAEAHQERDTQQAAYTEKKVVSMRSSNQSATTNTRRAQESTANAKTHKITIIEPRVYSEAMSIAKHLFAEEAVLVNFTLVEEDQARRIVDFLTGTVYALDGDIQRVGNEIFLCTPANMEIDSATAQSLANKQFFDFLEHHHHHH	failed
